Measurements published in patent publication US20240207429A1 (PROFOUNDBIO US, published 2024).

How the values were obtained:
[1] = molecular target: T1, Human FOLR1 Protein His Tag (ACRO-FO1-H52H1) (human, UniProt P15328 25-233); assay: ELISA, supernatant diluted 1x
T1 construct: not shown: His tag

[2] = molecular target: T2, Cynomolgus/Rhesus macaque FOLR1 Protein, His Tag (ACRO, F01-C52H8) (cynomolgus, UniProt A0A2K5U044 25-233); assay: ELISA, supernatant diluted 1x
T2 construct: also called cynomolgus FOLR1 protein; not shown: His tag

[3] = molecular target: T1, Human FOLR1 Protein His Tag …; assay: ELISA, supernatant diluted 5x
[4] = molecular target: T2, Cynomolgus/Rhesus macaque FOLR1 …; assay: ELISA, supernatant diluted 5x
[5] = molecular target: T1, Human FOLR1 Protein His Tag …; assay: ELISA, supernatant diluted 25x
[6] = molecular target: T2, Cynomolgus/Rhesus macaque FOLR1 …; assay: ELISA, supernatant diluted 25x
[7] = molecular target: T1, Human FOLR1 Protein His Tag …; assay: ELISA, HEK293 supernatant on coated antigen

T2 sequence (A0A2K5U044 entry or part of it): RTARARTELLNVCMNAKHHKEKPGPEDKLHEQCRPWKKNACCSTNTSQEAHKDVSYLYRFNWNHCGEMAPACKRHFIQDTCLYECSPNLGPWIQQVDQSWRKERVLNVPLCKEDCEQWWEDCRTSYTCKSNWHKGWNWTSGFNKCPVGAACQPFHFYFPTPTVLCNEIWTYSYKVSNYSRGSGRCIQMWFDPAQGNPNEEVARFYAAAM
T1 sequence (P15328 25-233 limits assumed): as the sequence (A0A2K5U044 entry or part of it) above, with T2I, R4W, K37R, P146A, Y171H counted along it

OD450 [1]	OD450 [2]	OD450 [3]	OD450 [4]	OD450 [5]	OD450 [6]	OD450 [7]	Binder
1.66	1.38	1.45	1.26	1.18	0.994	2.43	F1 (antibody, V domains shown, also called clone F1; anti-FOLR1 antibody F1) VH: EVQLLESGGGVVQPGRSLRLSCAASGFTFSSYGMHWVRQAPGKGLEWVAVISYDGSNKYYADSVKGRFTISRDNSKNTLYLQMNSLRAEDTAVYYCARPRAYYGAYGSSFDYWGQGTQVTVSS VL: EIVMTQSPSSVSASVGDRVAITCRASQGISSWLAWYQQKPGKAPKLLIYAASSLQSGVPSRFSGSGSGTDFTLTISSLQPEDFATYYCQQSYSTPLTFGGGTKVDIK
0.811	1.35	0.382	1.11	0.163	0.924	2.39	F40 (antibody, V domains shown, also called clone F40; anti-FOLR1 antibody F40) VH: EVQLLESGGGVVQPGRSLRLSCAASGFTFSSYAMHWVRQAPGKGLEWVAVISYDGSNKYYADSVKGRFIISRDNSKNTVYLQMNSLRAEDTAVYYCARPTYVFTYTGSSFDYWGQGTQVTVSS VL: DIQVTQSPSSLSASLGDTVSITCRASRGLTDSVAWYQQKPGQAPKLLIYAASTLQSGVPSRFGGSGSGSYFTLTITSLQPEDVATYYCQNYKSAPWTFGQGTKVEIK
1.56	1.15	1.59	1.04	1.29	0.908	2.54	F48 (antibody, V domains shown, also called clone F48; anti-FOLR1 antibody F48) VH: EVQLLESGGGVVQPGRSLRLSCAASGFTFSSYGMHWVRQAPGKGLEWVAVISYDGSNKYYADSVKGRFTISRDNSKNTLYLHMNSLRAEDTAVYYCARPRAYYGAYGSSFDYWGQGTQVTVSS VL: EIVMTQSPSSVSASVGDRVAITCRASQGISSWLAWYQQKPGKAPKLLIYAASSLQSGVPSRFSGSGSGTDFTLTISSLQPEDFATYYCQQSYSTPLTFGGGTKVDIK
1.64	1.14	1.69	1.14	0.827	1.17	2.41	F138 (antibody, V domains shown, also called clone F138; anti-FOLR1 antibody F138) VH: EVQLLESGGGVVQPGRSLRLSCAASGFTFSSYGMHWVRQAPGKGLEWVAVISYDGSNKYYADSVKGRFTISTHNSKNTLYLQMNSLRAEDTAVYYCARPRAYYGAYGSSFDYWGQGTQVTVSS VL: EIVMTQSPSSVSASVGDRVAITCRASQGISSWLAWYQQKPGKAPKLLIYAASSLQSGVPSRFSGSGSGTDFTLTISSLQPEDFATYYCQQSYSTPLTFGGGTKVDIK
1.61	1.2	1.52	1.27	1.38	1.09	2.35	F131 (antibody, V domains shown, also called clone F131; F131 mAb) VH: EVQLLESGGGVVQPGRSLRLSCAASGFTFSSYGMHWVRQAPGKGLEWVAVISYDGSNKYYADSVKGRFTISRANSKNTLYLQMNSLRAEDTAVYYCARPRAYYGAYGSSFDYWGQGTQVTVSS VL: EIVMTQSPSSVSASVGDRVAITCRASQGISSWLAWYQQKPGKAPKLLIYAASSLQSGVPSRFSGSGSGTDFTLTISSLQPEDFATYYCQQSYSTPLTFGGGTKVDIK
1.67	0.896	1.65	1.28	1.31	1.06	2.45	F8 (antibody, V domains shown, also called clone F8; anti-FOLR1 antibody F8) VH: EVQLLESGGGVVQHGRSLRLSCAASGFTFSSYGMHWVRQAPGKGLEWVAVISYDGSNKYYADSVKGRFTISRDNSKNTLYLQMNSLRAEDTAVYYCARPRAYYGAYGSSFDYWGQGTQVTVSS VL: EIVMTQSPSSVSASVGDRVAITCRASQGISSWLAWYQQKPGKAPKLLIYAASSLQSGVPSRFSGSGSGTDFTLTISSLQPEDFATYYCQQSYSTPLTFGGGTKVDIK
1.72	1.36	1.47	1.3	1.33	1.07	2.32	F123 (antibody, V domains shown, also called clone F123; anti-FOLR1 antibody F123) VH: EVQLLESGGGVVQPERSLRLSCAASGFTFSSYGMHWVRQAPGKGLEWVAVISYDGSNKYYADSVKGRFTISRANSKNTLYLQMNSLRAEDTAVYYCARPRAYYGAYGSSFDYWGQGTQVTVSS VL: EIVMTQSPSSVSASVGDRVAITCRASQGISSWLAWYQQKPGKAPKLLIYAASSLQSGVPSRFSGSGSGTDFTLTISSLQPEDFATYYCQQSYSTPLTFGGGTKVDIK
1.61	1.16	1.53	1.03	1.18	0.875	2.3	F100 (antibody, V domains shown, also called clone F100; anti-FOLR1 antibody F100) VH: EVQLLESGGGVVQPGRSLRLSCAASGFTFSSYGMHWVRQAPGKGLEWVAVISYDGSNKYYADSVKGRFTISRPNSKNTLYLQMNSLRAEDTAVYYCARPRAYYGAYGSSFDYWGQGTQVTVSS VL: EIVMTQSPSSVSASVGDRVAITCRASQGISSWLAWYQQKPGKAPKLLIYAASSLQSGVPSRFSGSGSGTDFTLTISSLQPEDFATYYCQQSYSTPLTFGGGTKVDIK
1.64	1.24	1.51	1.21	1.48	1.02	2.43	F26 (antibody, V domains shown, also called clone F26; anti-FOLR1 antibody F26) VH: EVQLLESGGGVVQRGRSLRLSCAASGFTFSSYGMHWVRQAPGKGLEWVAVISYDGSNKYYADSVKGRFTISRDNSKNTLYLPMNSLRAEDTAVYYCARPRAYYGAYGSSFDYWGQGTQVTVSS VL: EIVMTQSPSSVSASVGDRVAITCRASQGISSWLAWYQQKPGKAPKLLIYAASSLQSGVPSRFSGSGSGTDFTLTISSLQPEDFATYYCQQSYSTPLTFGGGTKVDIK
1.56	1.26	1.42	1.21	1.17	0.933	2.35	F112 (antibody, V domains shown, also called clone F112; anti-FOLR1 antibody F112) VH: EVQLLESGGGVVQPGRSLRLSCAASGFTFSSYGMHWVRQAPGKGLEWVAVISYDGSNKYYADSVKGRFTISRHNSKNTLYLQMNSLRAEDTAVYYCARPRAYYGAYGSSFDYWGQGTQVTVSS VL: EIVMTQSPSSVSASVGDRVAITCRASQGISSWLAWYQQKPGKAPKLLIYAASSLQSGVPSRFSGSGSGTDFTLTISSLQPEDFATYYCQQSYSTPLTFGGGTKVDIK
